From patent publication WO1995033832A1 come the findings set out here.

For assay [1], the target named is recombinant Hepatitis B virus surface antigen (HBsAg) (Hepatitis B virus). Kind of assay: immunoaffinity column, scFv on Sepharose CL-4B; Expt. 5, crude semipurified HBsAg, 2 mg loaded.
Assay [2] shares this target. The experiment in a line: ELISA; scFv preincubated with HBsAg in solution, molar ratio fragment:antigen 1:3.5; inhibition of binding to coated HBsAg. On the technique in general: In an ELISA, binding on a coated surface is turned into a signal by an enzyme label.
For assay [3] the target is unchanged. Kind of assay: ELISA on coated recombinant HBsAg.
Assay [4] has the same target. Kind of assay: scFv on Sepharose CL-4B; saturating pure HBsAg applied, eluted with 3 M KSCN (gel without ligand: 0.012 mg).
For assay [5] the target is unchanged. The experiment in a line: ELISA, plates coated with recombinant HBsAg 5 ug/ml; renatured and IMAC-purified scFv; detected with rabbit anti-Fab and Protein A-HRP.
Assay [6] has the same target. Kind of assay: ELISA; scFv preincubated with HBsAg in solution, molar ratio fragment:antigen 1:0.14; inhibition of binding to coated HBsAg.
Assay [7] has the same target. Kind of assay: ELISA; scFv without HBsAg in solution, molar ratio fragment:antigen 1:0 (reference).
The target is the same in assay [8]. The experiment in a line: immunoaffinity column, scFv on Sepharose CL-4B; Expt. 2, pure HBsAg, 2 mg loaded.
The target is the same in assay [9]. The experiment in a line: ELISA, plates coated with recombinant HBsAg 5 ug/ml; renatured scFv, not purified; detected with rabbit anti-Fab and Protein A-HRP.
The target is the same in assay [10]. Kind of assay: immunoaffinity column, scFv on Sepharose CL-4B; Expt. 4, crude semipurified HBsAg, 2 mg loaded.
The target is the same in assay [11]. The experiment in a line: immunoaffinity column, scFv on Sepharose CL-4B; Expt. 6, crude semipurified HBsAg, 2 mg loaded.
Assay [12] shares this target. Kind of assay: ELISA; scFv preincubated with HBsAg in solution, molar ratio fragment:antigen 1:0.7; inhibition of binding to coated HBsAg.
Assay [13] has the same target. The experiment in a line: immunoaffinity column, scFv on Sepharose CL-4B; Expt. 1, pure HBsAg, 2 mg loaded.
Assay [14] has the same target. The experiment in a line: immunoaffinity column, scFv on Sepharose CL-4B; Expt. 3, pure HBsAg, 2 mg loaded.

Usually % inhibition stands for the share of the control response that was lost under treatment. In the case of “anti-HBsAg scFv (recombinant single chain Fv antibody fragment, VH-linker-VL, from MAb CB-Hep.1, expressed in E. coli from pPACIB.1/scFv anti HBsAg)”, the mg HBsAg eluted/ml gel (mg HBsAg eluted/ml gel) in assay [1] was determined as 0.26; in [8] it was 0.34; in [10], 0.45; in assay [11], 0.42; in assay [13] it was 0.54; in [14], 0.51. Besides, the % inhibition in [2] stood at 95.1%; in assay [6], 12.8%; in assay [7], 0%; in assay [12], 76.4%. In addition, the optimal binding concentration (saturation) in [3] was found to be 37 µg/mL. In addition, the Amount of eluted HBsAg in [4] is 0.126 mg. The Absorbance at 492 nm (absorbance at 492 nm) in assay [5] worked out at 0.68; in assay [9], 1.54.
